Results: patent publication US20250114430A1 (UNIVERSITY OF NORTH CAROLINA AT CHAPEL HILL, published 2025)

Tests used:
[1] = target: T1, Orai1 plasma membrane Ca^2+ channel (endogenous, HEK293T cells and ARDS patient immune cells) (UniProt Q96D31 1-301, limits assumed); assay: cell-based or functional assay
[2] = target: T1, Orai1 plasma membrane Ca^2+ channel …; assay: cell-based or functional assay; remark: listed apart in the source
[3] = target: T2, Orai1 extracellular peptide 1 (OP1); assay: dynamic light scattering, Z-average increased
T2 peptide: EVQLDADHDYPPGL
From the text: (§1) Endogenous Orai1/store operated Ca²⁺ influx have been extensively studied in HEK293T cells, so this cell type was used to understand ELD607-Orai1 interactions. […] Thapsigargin is a SERCA pump inhibitor that prevents uptake of cytosolic Ca²⁺ into the endoplasmic reticulum. Thapsigargin is commonly used to stimulate Orai1/store operated Ca²⁺ influx. […] Dynamic light scattering (DLS) was used to evaluate binding of ELD607 to peptides of Orai1 extracellular loops. […] Thus, it was concluded that ELD607 interacts with Orai1.

[4] = target: T3, peptide of Orai1's second extracellular loop (OP2); assay: dynamic light scattering (Z-average)
T3 construct: Peptide corresponding to amino acids 195-234 of Orai1
T3 peptide: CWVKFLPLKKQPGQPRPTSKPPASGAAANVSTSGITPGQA
From the text: as §1

T1 sequence (Q96D31 whole entry): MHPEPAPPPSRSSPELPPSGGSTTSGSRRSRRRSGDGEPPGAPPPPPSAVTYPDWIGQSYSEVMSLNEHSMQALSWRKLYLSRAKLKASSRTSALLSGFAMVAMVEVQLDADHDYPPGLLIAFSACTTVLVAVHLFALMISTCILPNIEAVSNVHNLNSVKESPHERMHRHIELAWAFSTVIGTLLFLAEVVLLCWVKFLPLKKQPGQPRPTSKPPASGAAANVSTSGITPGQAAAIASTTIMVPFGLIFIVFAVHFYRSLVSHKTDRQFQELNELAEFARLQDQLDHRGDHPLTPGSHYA

## DITLVHDIVNMLIHGL [ELD100 peptide]
[1]
  IC50, inhibiting store operated Ca^2+ influx in HEK293T cells: 124 nM
[2]
  IC50 (Molar), Ca^2+ influx after Ca^2+ add back, HEK293T cells: 3.7e-08 Molar

B1: ELD607 (peptide)
peptide: VHDIVNMLIRG
notes: Synthetic 11-residue peptidomimetic derived from ELD100 (H14R, deletion of positions 1-4, L16 deletion); also called ELD142-11
[3]
  binding result: binds
[4]
  binding result: no binding
[1]
  IC50, inhibiting store operated Ca^2+ influx in HEK293T cells: 9 nM
[2]
  IC50 (Molar), Ca^2+ influx after Ca^2+ add back, HEK293T cells: 8.1e-08 Molar
